Source: patent US11921118B2, “Methods for proteome labeling” (The Board of Trustees of the Leland Stanford Junior …, priority 2018, dated 2024)

Experiments:
[1] = test system: B16-F10; assay: Proteome labeling after transient transfection and AzY/AzF incubation, DIBO-Alexa Fluor 647 in-gel fluorescence; assay type: cell-based, mouse; conditions: transient transfection, 2 mM AzY or AzF
Procedure: (§1) Cells were lysed, pre-treated with iodoacetamide (IAM) to block background thiol-yne additions (25), and treated with dibenzocyclooctyne (DIBO)-Alexa Fluor 647 dye for copper-free, strain-promoted azide-alkyne cycloaddition.
(§2) Cell transfection, click amino acid labeling, and selection of stably transfected B16-F10 cells. Unless otherwise noted, cells were transiently transfected with Lipofectamine 3000 (Invitrogen) 24 hours prior to 4-Azido-L-phenylalanine (AzF, Chem-Implex) or 3-Azido-L-tyrosine (AzY, Watanabe Chemical Industries) labeling. For initial assessment of labeling across mammalian cell lines, transfected cells were incubated with 2 mM of AzF, AzY, tyrosine, or phenylalanine for 30 hours in 12-well plates prior to lysis. To characterize enzyme selectivity and rate of substrate activation, transfected HEK293T cells were incubated with varying amounts of endogenous and non-canonical amino acids for 24 hours in 12-well plates prior to lysis. For affinity enrichment prior to shotgun mass spectrometry, transfected HEK293T cells were incubated with 125 μM of endogenous and non-canonical amino acids for 24 hours in 10 cm dishes prior to lysis. B16-F10 cells were transfected with mutant synthetases in the Piggybac vector PB513B-1 for 72 hours prior to puromycin selection at 10 μg/ml for 10 days.
(§3) Copper-free reaction of DIBO-Alexa Fluor 647 with click-labeled cell lysates for in-gel fluorescence. After washing in PBS twice, cells were lysed 1% SDS in PBS with EDTA-free protease inhibitor (Roche). […] Protein concentrations were measured with a BCA Protein Assay Kit (Pierce) to ensure equal loading across gel wells (˜23 μg). […] Colloidally stained gels were imaged in the 800-nm channel of an Odyssey CLx (LI-COR), where no bleed-through of the Alexa Fluor 647 signal was detected. Quantification of signal intensities of labeled proteomes from each gel lane were analyzed in ImageJ as before, but with slight modifications (36). […] Instead, the mean and standard deviations were calculated from biological triplicates of whole gel lanes, less the dye front.

[2] = test system: CHO; assay: as above; assay type: cell-based, hamster; conditions: transient transfection, 2 mM AzY or AzF
Procedure: as §1, §2, §3

[3] = test system: HEK293T; assay: as above; assay type: cell-based, human; conditions: transient transfection, 2 mM AzY or AzF
Procedure: as §1, §2, §3

[4] = test system: HEK293T cells; assay: Selectivity of ncAA activation over canonical amino acid, in-gel AF647 fluorescence fitted to Michaelis-Menten kinetics; assay type: cell-based, human; conditions: equimolar concentrations of the two amino acids; serum-containing media, 24 h
From the text: FIGS. 2A-2E: Identification and characterization of TyrRS and PheRS variants for bioorthogonal labeling of mammalian proteomes with AzY and AzF. FIG. 2A: A single substitution (Y43G) in the amino acid binding site of yeast tyrosyl-tRNA synthetase (ScTyrY43G) enables charging of the azido tyrosine analog AzY onto tRNA^TYr before incorporation into nascent proteins of host cells. FIG. 2B: A single substitution (T413G) in the amino binding site of human or mouse phenylalanyl-tRNA synthetase (MmPheT413G) enables charging of the azido phenylalanine analog AzF onto tRNA^Phe. FIG. 2C: In-gel fluorescence image of Alexa Fluor 647 labeling corresponding to AzY or AzF incorporation into mammalian cell proteomes. ‘WT’: no exogenous amino acid added to media. ‘CP1 switch’: an E. coli TyrRS with the human CP1 peptide engrafted. ‘Mj TyRS’: TyrRS from the species M. jannaschii, without its accompanying tRNA. FIG. 2D: High selectivity of ScTyrY43G for AzY over Tyr. In-gel Alexa Fluor 647 fluorescence and coomassie blue staining of whole gel lanes were quantified to assess the degree of proteome labeling normalized to total protein content. […]
Copper-free reaction of DIBO-Alexa Fluor 647 with click-labeled cell lysates for in-gel fluorescence. […] Protein concentrations were measured with a BCA Protein Assay Kit (Pierce) to ensure equal loading across gel wells (˜23 μg). […]

B1: HsPheT413G: human phenylalanyl-tRNA synthetase with T413G substitution; SEQ ID NO:6 (protein)
chain: MADGQVAELLLRRLEASDGGLDSAELAAELGMEHQAVVGAVKSLQALGEVIEAELRSTKHWELTAEGEEIAREGSHEARVFRSIPPEGLAQSELMRLPSGKVGFSKAMSNKWIRVDKSAADGPRVFRVVDSMEDEVQRRLQLVRGGQAEKLGEKERSELRKRKLLAEVTLKTYWVSKGSAFSTSISKQETELSPEMISSGSWRDRPFKPYNFLAHGVLPDSGHLHPLLKVRSQFRQIFLEMGFTEMPTDNFIESSFWNFDALFQPQQHPARDQHDTFFLRDPAEALQLPMDYVQRVKRTHSQGGYGSQGYKYNWKLDEARKNLLRTHTTSASARALYRLAQKKPFTPVKYFSIDRVFRNETLDATHLAEFHQIEGVVADHGLTLGHLMGVLREFFTKLGITQLRFKPAYNPYGEPSMEVFSYHQGLKKWVEVGNSGVFRPEMLLPMGLPENVSVIAWGLSLERPTMIKYGINNIRELVGHKVNLQMVYDSPLCRLDAEPRPPPTQEAA
proteome labeling [1]: strong labeling
proteome labeling [2]: strong labeling
proteome labeling [3]: strong labeling

B2: MmPheT413G: mouse phenylalanyl-tRNA synthetase with T413G substitution, charges AzF onto tRNA-Phe; SEQ ID NO:5 (protein)
chain: MADNPVLELLLRRLEVADGGLDSAELATQLGVEHQAVVGAVKSLQALGEVIEAELRSTKCWELTTEGEEIAREGSHEARVFRSIPLEGLVQSELMHLPSGKVGFSKAMSNKWIRVDKSAADGPRVFRVVDSIEDEVQKRLQLVQAGQAEKLAEKERNELRKRKLLTEVILKTYWVSKGKAFSTSVSKQEAELSPEMISSGSWRDRPFKPYNFSARGVLPDSGHLHPLLKVRSQFRQIFLEMGFTEMPTDNFIESSFWNFDALFQPQQHPARDQHDTFFLRDPAEALQLPMGYVQRVKRTHSQGGYGSQGYKYTWKLEEARKNLLRTHTTAASARALYQLAQKKPFTPAKYFSIDRVFRNETLDATHLAEFHQIEGVIADHGLTLGHLMGVLREFFTKLGITQLRFKPAYNPYGEPSMEVFSYHQGLKKWVEVGNSGVFRPEMLLPMGLPENVSVIAWGLSLERPTMIKYGINNIRELVGHKVNLQMVYDSPVCRLDIEPRSSKTQEAA
proteome labeling [1]: strong labeling
proteome labeling [2]: strong labeling
proteome labeling [3]: strong labeling
activation of AzF faster than Phe [4]: over 11 fold

B3: ScTyrY43G: yeast tyrosyl-tRNA synthetase with Y43G substitution, charges AzY onto tRNA-Tyr; SEQ ID NO:4 (protein)
chain: MSSAATVDPNEAFGLITKNLQEVLNPQIIKDVLEVQKRHLKLGWGTAPTGRPHCGYFVPMTKLADFLKAGCEVTVLLADLHAFLDNMKAPLEVVNYRAKYYELTIKAILRSINVPIEKLKFVVGSSYQLTPDYTMDIFRLSNIVSQNDAKRAGADVVKQVANPLLSGLIYPLMQALDEQFLDVDCQFGGVDQRKIFVLAEENLPSLGYKKRAHLMNPMVPGLAQGGKMSASDPNSKIDLLEEPKQVKKKINSAFCSPGNVEENGLLSFVQYVIAPIQELKFGTNHFEFFIDRPEKFGGPITYKSFEEMKLAFKEEKLSPPDLKIGVADAINELLEPIRQEFADNKEFQEASEKGYPVATPQKSKKAKKPKNKGTKYPGATKTNEIATKLEETKL
proteome labeling [1]: strong labeling
proteome labeling [2]: strong labeling
proteome labeling [3]: strong labeling
activation of AzY faster than Tyr [4]: ~250 fold
